PMC10470207, “Activation of human RNA lariat debranching enzyme Dbr1 by binding protein TTDN1 occurs though an intrinsically disordered C-terminal domain” (The Journal of Biological Chemistry, 2023)

How the values were obtained:
[1] = target: the molecule itself; assay: AUC; proteins diluted to 0.9 A280 in Q-A buffer (20 mM Tris pH 8, 50 mM NaCl, 1 mM TCEP); 40,000 RPM; analysed with Ultrascan
[2] = target: T1, human RNA lariat debranching enzyme Dbr1, full-length (1-544) (human, UniProt Q9UK59 1-544); assay: SEC; Superdex 200-Increase 10/300 in SEC buffer (50 mM Tris pH 8, 100 mM NaCl, 1 mM TCEP); about 100 ug Dbr1 injected, Drn1 added at an equimolar ratio; peak fraction on a Coomassie-stained denaturing gel; settings: both partners purified
T1 construct: human RNA lariat debranching enzyme Dbr1, full-length, residues 1-544; codon-optimized expression plasmid synthesized by DNA2.0; also called hDbr1; human Dbr1; source: E. coli BL21, purified (Ni column, Source 15 Q)
T1 sequence (looked up): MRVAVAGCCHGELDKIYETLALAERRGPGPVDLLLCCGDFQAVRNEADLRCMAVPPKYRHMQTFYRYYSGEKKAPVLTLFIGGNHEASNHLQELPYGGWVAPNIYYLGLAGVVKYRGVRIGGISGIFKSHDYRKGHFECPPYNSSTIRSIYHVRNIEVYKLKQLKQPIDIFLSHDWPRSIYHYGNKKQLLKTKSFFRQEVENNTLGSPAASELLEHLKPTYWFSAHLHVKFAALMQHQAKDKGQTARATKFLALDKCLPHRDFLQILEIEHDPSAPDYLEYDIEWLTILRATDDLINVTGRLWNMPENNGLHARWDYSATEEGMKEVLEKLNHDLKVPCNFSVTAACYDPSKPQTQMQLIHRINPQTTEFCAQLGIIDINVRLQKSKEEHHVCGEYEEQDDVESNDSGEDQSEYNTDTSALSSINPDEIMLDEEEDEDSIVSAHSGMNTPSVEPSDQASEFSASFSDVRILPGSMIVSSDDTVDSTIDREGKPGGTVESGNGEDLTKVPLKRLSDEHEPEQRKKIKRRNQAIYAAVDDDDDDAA

[3] = target: T1, human RNA lariat debranching enzyme …; assay: cell-based or functional assay
[4] = target: T1, human RNA lariat debranching enzyme …; assay: fluorescence polarisation; fluorescein-labeled TTDN1 fixed at 2.5 nM; unlabeled Dbr1 titrated (3-fold dilution from 2.8 uM to 1 nM) or Drn1 at 225 nM; SEC buffer; black 96-well half-area plates; settings: both partners purified

B1: human Dbr1 truncated after residue 399 (Dbr1-399) (domain or fragment, UniProt Q9UK59 1-399, looked up)
chain: MRVAVAGCCHGELDKIYETLALAERRGPGPVDLLLCCGDFQAVRNEADLRCMAVPPKYRHMQTFYRYYSGEKKAPVLTLFIGGNHEASNHLQELPYGGWVAPNIYYLGLAGVVKYRGVRIGGISGIFKSHDYRKGHFECPPYNSSTIRSIYHVRNIEVYKLKQLKQPIDIFLSHDWPRSIYHYGNKKQLLKTKSFFRQEVENNTLGSPAASELLEHLKPTYWFSAHLHVKFAALMQHQAKDKGQTARATKFLALDKCLPHRDFLQILEIEHDPSAPDYLEYDIEWLTILRATDDLINVTGRLWNMPENNGLHARWDYSATEEGMKEVLEKLNHDLKVPCNFSVTAACYDPSKPQTQMQLIHRINPQTTEFCAQLGIIDINVRLQKSKEEHHVCGEYEEQ
notes: source: E. coli, purified
[1]
  binding result: binds

B2: Drn1 (human Drn1 homolog, Cwf19-L1) (natural protein, UniProt Q69YN2 1-538, looked up)
chain: MAQKPLRLLACGDVEGKFDILFNRVQAIQKKSGNFDLLLCVGNFFGSTQDAEWEEYKTGIKKAPIQTYVLGANNQETVKYFQDADGCELAENITYLGRKGIFTGSSGLQIVYLSGTESLNEPVPGYSFSPKDVSSLRMMLCTTSQFKGVDILLTSPWPKCVGNFGNSSGEVDTKKCGSALVSSLATGLKPRYHFAALEKTYYERLPYRNHIILQENAQHATRFIALANVGNPEKKKYLYAFSIVPMKLMDAAELVKQPPDVTENPYRKSGQEASIGKQILAPVEESACQFFFDLNEKQGRKRSSTGRDSKSSPHPKQPRKPPQPPGPCWFCLASPEVEKHLVVNIGTHCYLALAKGGLSDDHVLILPIGHYQSVVELSAEVVEEVEKYKATLRRFFKSRGKWCVVFERNYKSHHLQLQVIPVPISCSTTDDIKDAFITQAQEQQIELLEIPEHSDIKQIAQPGAAYFYVELDTGEKLFHRIKKNFPLQFGREVLASEAILNVPDKSDWRQCQISKEDEETLARRFRKDFEPYDFTLDD
notes: human Drn1 homolog (Cwf19-L1); cDNA purchased from Genecopoeia, subcloned into a modified pET vector; source: E. coli BL21, purified (Ni column, Superdex-200)
[2]
  stoichiometry N: 1

B3: trichothiodystrophy nonphotosensitive 1 (TTDN1), fluorescein-labeled (natural protein, UniProt Q8TAP9 1-179, looked up)
chain: MQRQNFRPPTPPYPGPGGGGWGSGSSFRGTPGGGGPRPPSPRDGYGSPHHTPPYGPRSRPYGSSHSPRHGGSFPGGRFGSPSPGGYPGSYSRSPAGSQQQFGYSPGQQQTHPQGSPRTSTPFGSGRVREKRMSNELENYFKPSMLEDPWAGLEPVSVVDISQQYSNTQTFTGKKGRYFC
modifications: 5-iodoacetamido-fluorescein label on the cysteine residue at the C terminus
notes: trichothiodystrophy nonphotosensitive 1 (TTDN1); codon-optimized expression plasmid ordered from GenScript; The debranching (functional) assays used unlabeled, GuHCl-solubilized TTDN1 of the same construct; also called labeled TTDN1
[3]
  catalytic efficiency of Dbr1 debranching of a fluorescent branched RNA substrate, TTDN1:Dbr1 mixture at 10:1 molar ratio (unlabeled, GuHCl-solubilized TTDN1), relative to Dbr1 alone: 19 fold
[4]
  Kd: ~3 nM

B4: human Dbr1 truncated after residue 502 (Dbr1-502) (domain or fragment, UniProt Q9UK59 1-502, looked up)
chain: MRVAVAGCCHGELDKIYETLALAERRGPGPVDLLLCCGDFQAVRNEADLRCMAVPPKYRHMQTFYRYYSGEKKAPVLTLFIGGNHEASNHLQELPYGGWVAPNIYYLGLAGVVKYRGVRIGGISGIFKSHDYRKGHFECPPYNSSTIRSIYHVRNIEVYKLKQLKQPIDIFLSHDWPRSIYHYGNKKQLLKTKSFFRQEVENNTLGSPAASELLEHLKPTYWFSAHLHVKFAALMQHQAKDKGQTARATKFLALDKCLPHRDFLQILEIEHDPSAPDYLEYDIEWLTILRATDDLINVTGRLWNMPENNGLHARWDYSATEEGMKEVLEKLNHDLKVPCNFSVTAACYDPSKPQTQMQLIHRINPQTTEFCAQLGIIDINVRLQKSKEEHHVCGEYEEQDDVESNDSGEDQSEYNTDTSALSSINPDEIMLDEEEDEDSIVSAHSGMNTPSVEPSDQASEFSASFSDVRILPGSMIVSSDDTVDSTIDREGKPGGTVESGNG
notes: source: E. coli, purified
[1]
  binding result: binds
